This note sets out measurements from PMC7094522.

In this test the target is Fluorogenic peptide Dabcyl-…-Edans, EV71 polyprotein autoprocessing site between 3B and 3C (human enterovirus 71).

On to EV71 3C protease mutant H133G (enzyme), for which the Km of cleavage of the fluorogenic 3B-3C peptide (protease assay, 4 μM protease) was found to be 25.9 µM.
